Laboratory results as given in patent publication US20190367619A1 (ARGENX, published 2019).
Residue numbers refer to the chain shown, from its start.

T1: cynomolgus galectin-10-His, WGS isoform (cynomolgus)
T1 construct: also called cynoGal10-WGS; not shown: His tag
T1 chain: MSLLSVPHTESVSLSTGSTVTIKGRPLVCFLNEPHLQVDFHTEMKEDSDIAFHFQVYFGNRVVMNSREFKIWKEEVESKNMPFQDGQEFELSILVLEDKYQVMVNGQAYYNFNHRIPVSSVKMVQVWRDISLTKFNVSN

T2: human galectin-10-His (human)
T2 construct: The last M of the tag may be Met1 of galectin-10; also called humanGal10-His; hGal10
T2 chain: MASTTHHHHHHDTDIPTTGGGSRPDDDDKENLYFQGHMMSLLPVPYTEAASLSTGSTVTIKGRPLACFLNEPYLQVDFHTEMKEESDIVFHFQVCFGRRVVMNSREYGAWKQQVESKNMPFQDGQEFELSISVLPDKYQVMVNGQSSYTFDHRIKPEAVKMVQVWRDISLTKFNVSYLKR

T3: cynomolgus galectin-10-His, YRT isoform (cynomolgus)
T3 construct: also called cynoGal10-YRT; not shown: His tag
T3 chain: T1 chain with K23E, G24A, L31F, F69Y, K70R, I71T, S92R

B1: 10B02 scFv-human Fc (Fc fusion)
scFv: QVQLVESGGGLVQPGGSLRVSCAASGFTFSYHYMNWVRQAPGKGLEWVSGISAGGGRTYYADSVKGRFTISRDNAKNTLYLQMNSLNAEDTALYYCARVHGITNDYWGQGTQVTVSSGGGGSGGGGSGGGGSQSALTQPPSVSGSPGKTVTISCAGTSSDVGYGNYVSWYQQLPGMAPKLLIYEVNKRASGITDRFSGSKSGNTAFLTISGLQSEDEADYYCASYRNSNNWVFGGGTHLTVL
notes: also called 010B02; not shown: CH2-CH3 constant domains of human IgG1 (pUPEX50 scFv-Fc fusion vector)
B2: 8H11 scFv-human Fc (Fc fusion)
scFv: ELQLVESGGGLVQPGGSLRLSCAASGFTFSTNYMNWVRQAPGKGLEWVSGITSGGGRTYYADSVKGRFTISRDNAKNTLYLQMNSLKPEDTALYYCARTDHAWLDAWGQGTLVTVSSGGGGSGGGGSGGGGSQAGLTQPPSVSGTLGKTVTISCAGTSSDVGYGNYVSWYQQLPGTAPKLLIYAVSTRASGIPDRFSGSKSGNTASLTISGLLSEDEADYYCASYRSSNNYVFGGGTKLTVL
notes: also called 008H11; not shown: CH2-CH3 constant domains of human IgG1 (pUPEX50 scFv-Fc fusion vector)
B3: 10D02 scFv-human Fc (Fc fusion)
scFv: EVQLVESGGGLVQPGGSLRVSCAASGFTFSSYYMSWVRQAPGKGLEWVSGIVTGGGRTHYTDSVKGRFTITRDNAKNTLYLQMNSLRPEDTALYYCARVNGVVTNYDYWGQGTQVTVSSGGGGSGGGGSGGGGSQAVLTQPPSVSGSPGKTVTISCAGTSSDVGYGNYVSWYQQLPGMAPKLLIYDVNKRASGITDRFSGSKSGNTASLTISGLQSEDEADYFCASYRSPNNVVFGQGTHLTVL
notes: also called 010D02; not shown: CH2-CH3 constant domains of human IgG1 (pUPEX50 scFv-Fc fusion vector)
B4: 7B07 scFv-human Fc (Fc fusion)
scFv: QVQLVESGGGLVQPGGSLRLSCAASGFTFRSYDMSWVRQAPGKGPEWVSAIKNGGGITYYADSVKGRFTISRDNAKNTLYLQMNSLKPEDTAVYYCATTHGIGTLGFGSWGQGTQVTVSSGGGGSGGGGSGGGGSSYELTQSASVSVALTQTAKITCDGNNIGSKSAQWYQQKPGQAPALVIYADEYRPEGIPERFSGSNSGNTATLIISGAQAEDEADYYCQVWDGSAAVFGRGTHLTVL
notes: also called 007B07; not shown: CH2-CH3 constant domains of human IgG1 (pUPEX50 scFv-Fc fusion vector)
B5: 11F02 scFv-human Fc (Fc fusion)
scFv: ELQVVESGGGLVQPGGSLRLSCAASGFTFSTNYMNWVRQAPGKGLEWVSGITSHGARTYYADSVKGRFTISRDNSKNTLYLQMNSLKPEDTALYYCARTDHASLDAWGQGTLVTVSSGGGGSGGGGSGGGGSQTVVTQEPSLSVSPGGTVTLTCGLSSGSVTSSNYPGWYQQKPGQAPRTLIYNTNSRYSGVPNRFSGSISGNKAALTITGAQPEDEADYYCALYMGSSSYNTVFGGGTHLTVL
notes: also called 011F02; not shown: CH2-CH3 constant domains of human IgG1 (pUPEX50 scFv-Fc fusion vector)
B6: 10A06 scFv-human Fc (Fc fusion)
scFv: QVQLVESGGGLVQPGGSLRLSCAASGFTFGNYDMSWVRQAPGKGPEWVSDINSGGGSTYYADSVKGRFTISRDNAKNSLLLQMNSLKPEDTAVYYCATGYTGYYYWGQGTQVTVSSGGGGSGGGGSGGGGSQTVVTQEPSLSVSPGGTVTLTCGLSSGSVTSSNYPAWYQQTPGQAPRALIYSINSRHSGVPDRFSGSISGNKAALTITGAQAEDEADYYCTLYMGTGSNNVVFGGGTHLTVL
notes: also called 010A06; not shown: CH2-CH3 constant domains of human IgG1 (pUPEX50 scFv-Fc fusion vector)
B7: 11F12 scFv-human Fc (Fc fusion)
scFv: QVQLQESGGGLVQPGGSLRLSCAASGFTFSTNYMNWVRQAPGKGLEWVSGITSGGGRTYYADSVKGRFTISRDNAKNTLYLQMNSLKPEDTALYYCARTDHAWLDAWGQGTLVTVSSGGGGSGGGGSGGGGSHSAVTQPPSVSGTLGKTVTISCAGTSSDVGYGNYVSWYQHLPGTAPKLLIYAVSTRASGVPDRFSGSKSGNTASLTISGLQSEDEGDYYCASYSVRNNVVFGGGTRLTVL
notes: also called 011F12; not shown: CH2-CH3 constant domains of human IgG1 (pUPEX50 scFv-Fc fusion vector)

Molecular target: T1, cynomolgus galectin-10-His, WGS isoform
Experiment: SPR Biacore T3000, scFv-human Fc captured
Method: (§1) The binding properties of the scFv-human Fc panel to galectin-10 were analyzed on the Biacore T3000. For this purpose, a CM5 Chip was coated with polyclonal anti-human Fc at 8000 RU, then a fixed concentration of the scFv-human Fc panel (1.5 μg/mL) were captured to reach a binding signal around 150 RU. Finally, a serial dilution of human or cynomolgus WGS isoform of galectin-10-His (serial dilution, 1 over 2 from 5 μg/mL, 6 points of dilution) was injected. Raw data were analyzed via BIA evaluation software with a blank subtraction (4-3). Finally, the kd/KD and Rmax of each scFv-human Fc to galectin-10-His was determined using the Fit Kinetics simultaneous ka/kd/Binding with mass transfer/Local Rmax on BIA evaluation software.

Binder | Kd [pM] | koff [s⁻¹] | kon [M⁻¹ s⁻¹]
B1 | 1000 | 0.0008 | 770000
B2 | 900 | 0.00161 | 1.75e+06
B3 | 2700 | 0.00122 | 450000
B4 | 1500 | 0.0766 | 5e+07
B5 | 7900 | 0.00185 | 240000

Molecular target: T2, human galectin-10-His
Experiment: SPR Biacore T3000, scFv-human Fc captured
Method: as §1

Binder | Kd [pM] | koff [s⁻¹] | kon [M⁻¹ s⁻¹]
B1 | 1600 | 0.00081 | 500000
B2 | 1800 | 0.00082 | 453000
B3 | 2000 | 0.00066 | 340000
B4 | 800 | 0.00124 | 1.5e+06
B6 | 300 | 0.00025 | 910000
B5 | 5400 | 0.00203 | 370000
B7 | 2300 | 0.00072 | 320000

Molecular target: T3, cynomolgus galectin-10-His, YRT isoform
Experiment: binding ELISA (summary table)
Method: (§2) In a similar setup to that used during the initial screening, the relative binding properties of the 11 new scFv-human Fc clones were analyzed by ELISA. Briefly, a Maxisorp plate was coated overnight with human or cynomolgus WGS or YRT isoforms of galectin-10-His at 0.2 μg/mL and blocked with PBS 1% casein, before being incubated with a serial dilution of the scFv-human Fc fusion molecules (from 100 nM, dilution 1/5, 8 points of dilutions). After several washing steps, detection of the bound scFv-human Fc was carried out with an anti-human Fc-HRP antibody (Jackson ImmunoResearch, Catalog 109-035-008). Absorbance was measured at 450 nm (reference at 620 nm) with Tecan instrument. Finally, the raw data (OD values) were plotted on GraphPad Prism 7.01. The EC50 values of each clone, calculated with a non-linear regression (log(agonist) vs. response Variable slope (four parameters)) are reported in Table 19 below. As a positive control, clone 6F05 from the previous galectin-10 antibody panel was included.

Binder | EC50 [pM]
B1 | 50
B2 | 100
B3 | 1400
B6 | 40
B7 | 240

Molecular target: T1, cynomolgus galectin-10-His, WGS isoform
Experiment: binding ELISA (summary table)
Method: as §2

Binder | EC50 [pM]
B1 | 50
B2 | 130
B3 | 1120
B4 | 820
B5 | 10400

Molecular target: T2, human galectin-10-His
Experiment: binding ELISA (summary table)
Method: as §2

Binder | EC50 [pM]
B1 | 90
B2 | 180
B3 | 560
B4 | 1110
B6 | 80
B5 | 770
B7 | 560

Molecular target: T1, cynomolgus galectin-10-His, WGS isoform
Experiment: SPR Biacore (summary table)
Method: as §1

Binder | Kd [pM] | koff [s⁻¹] | kon [M⁻¹ s⁻¹]
B1 | 1000 | 0.0008 | 770000
B2 | 900 | 0.00161 | 1.75e+06
B3 | 2700 | 0.00122 | 450000
B4 | 1500 | 0.0766 | 5e+07
B5 | 7900 | 0.00185 | 240000

Molecular target: T2, human galectin-10-His
Experiment: SPR Biacore (summary table)
Method: as §1

Binder | Kd [pM] | koff [s⁻¹] | kon [M⁻¹ s⁻¹]
B1 | 1600 | 0.00081 | 500000
B2 | 1800 | 0.00082 | 453000
B3 | 2000 | 0.00066 | 340000
B4 | 800 | 0.00124 | 1.5e+06
B6 | 300 | 0.00025 | 910000
B5 | 5400 | 0.00203 | 370000
B7 | 2300 | 0.00072 | 320000

Molecular target: T3, cynomolgus galectin-10-His, YRT isoform
Experiment: ELISA, coated antigen 0.2 ug/mL
Method: as §2

Binder | Bmax [OD] | EC50 [pM] | binding result
B1 | 3.2 | 50 | 
B2 | 3.1 | 100 | 
B3 | 2 | 1400 | 
B4 | 0 |  | no binding (tested: serial dilution from 100 nM)
B6 | 3 | 40 | 
B5 | 2.5 |  | 
B7 | 3 | 240 | 

Molecular target: T1, cynomolgus galectin-10-His, WGS isoform
Experiment: ELISA, coated antigen 0.2 ug/mL
Method: as §2

Binder | Bmax [OD] | EC50 [pM]
B1 | 3.3 | 50
B2 | 3.1 | 130
B3 | 3.1 | 1120
B4 | 0.6 | 820
B5 | 2.5 | 

Molecular target: T2, human galectin-10-His
Experiment: ELISA, coated antigen 0.2 ug/mL
Method: as §2

Binder | Bmax [OD] | EC50 [pM]
B1 | 2.2 | 90
B2 | 2.3 | 180
B3 | 1.9 | 560
B4 | 0.6 | 1110
B6 | 1.2 | 80
B5 | 1.5 | 770
B7 | 1.8 | 560
